T1: biotinylated V112E-PNT domain (ETV6 residues 43-135, V112E, with Avitag) (human, UniProt P41212 43-135, V112E, biotin on the Avitag (~50 to 95% biotinylated))
T1 construct: ETV6, human, residues 43-135 of V112E ETV6; also called biotinylated V112E-PNT domain ligand; V112E-PNT domain ligand; source: E. coli BL21 (λDE3) co-transformed with pET21a-BirA, purified (Ni-NTA, thrombin cleavage); not shown: His6, N-terminal, cleaved; Avitag, N-terminal, kept
T1 sequence (looked up): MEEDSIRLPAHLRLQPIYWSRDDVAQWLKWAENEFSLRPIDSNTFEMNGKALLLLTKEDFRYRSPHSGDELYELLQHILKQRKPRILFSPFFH

B1: E115A-A93D-PNT domain (domain or fragment, human, UniProt P41212 40-125, looked up)
chain: ALRMEEDSIRLPAHLRLQPIYWSRDDVAQWLKWAENEFSLRPIDSNTFEMNGKDLLLLTKEDFRYRSPHSGDVLYALLQHILKQRK
notes: ETV6 PNT domain, human; source: E. coli BL21 (λDE3), purified (Ni-NTA, thrombin cleavage); not shown: His6, N-terminal, cleaved
B2: D111A-A93D-PNT domain (domain or fragment, human, UniProt P41212 40-125, looked up)
chain: ALRMEEDSIRLPAHLRLQPIYWSRDDVAQWLKWAENEFSLRPIDSNTFEMNGKDLLLLTKEDFRYRSPHSGAVLYELLQHILKQRK
notes: as for B1
B3: F77A-A93D-PNT domain (domain or fragment, human, UniProt P41212 40-125, looked up)
chain: ALRMEEDSIRLPAHLRLQPIYWSRDDVAQWLKWAENEASLRPIDSNTFEMNGKDLLLLTKEDFRYRSPHSGDVLYELLQHILKQRK
notes: as for B1
B4: L79A-A93D-PNT domain (domain or fragment, human, UniProt P41212 40-125, looked up)
chain: ALRMEEDSIRLPAHLRLQPIYWSRDDVAQWLKWAENEFSARPIDSNTFEMNGKDLLLLTKEDFRYRSPHSGDVLYELLQHILKQRK
notes: as for B1
B5: L116A-A93D-PNT domain (domain or fragment, human, UniProt P41212 40-125, looked up)
chain: ALRMEEDSIRLPAHLRLQPIYWSRDDVAQWLKWAENEFSLRPIDSNTFEMNGKDLLLLTKEDFRYRSPHSGDVLYEALQHILKQRK
notes: ETV6 PNT domain, human; gene purchased commercially (Biomatik); source: E. coli BL21 (λDE3), purified (Ni-NTA, thrombin cleavage); not shown: His6, N-terminal, cleaved
B6: H108A-A93D-PNT domain (domain or fragment, human, UniProt P41212 40-125, looked up)
chain: ALRMEEDSIRLPAHLRLQPIYWSRDDVAQWLKWAENEFSLRPIDSNTFEMNGKDLLLLTKEDFRYRSPASGDVLYELLQHILKQRK
notes: as for B1
B7: E76A-A93D-PNT domain (domain or fragment, human, UniProt P41212 40-125, looked up)
chain: ALRMEEDSIRLPAHLRLQPIYWSRDDVAQWLKWAENAFSLRPIDSNTFEMNGKDLLLLTKEDFRYRSPHSGDVLYELLQHILKQRK
notes: as for B1
B8: R80A-A93D-PNT domain (domain or fragment, human, UniProt P41212 40-125, looked up)
chain: ALRMEEDSIRLPAHLRLQPIYWSRDDVAQWLKWAENEFSLAPIDSNTFEMNGKDLLLLTKEDFRYRSPHSGDVLYELLQHILKQRK
notes: as for B1
B9: I48A-A93D-PNT domain (domain or fragment, human, UniProt P41212 40-125, looked up)
chain: ALRMEEDSARLPAHLRLQPIYWSRDDVAQWLKWAENEFSLRPIDSNTFEMNGKDLLLLTKEDFRYRSPHSGDVLYELLQHILKQRK
notes: as for B1
B10: V112A-A93D-PNT domain (domain or fragment, human, UniProt P41212 40-125, looked up)
chain: ALRMEEDSIRLPAHLRLQPIYWSRDDVAQWLKWAENEFSLRPIDSNTFEMNGKDLLLLTKEDFRYRSPHSGDALYELLQHILKQRK
notes: as for B1
B11: E100A-A93D-PNT domain (domain or fragment, human, UniProt P41212 40-125, looked up)
chain: ALRMEEDSIRLPAHLRLQPIYWSRDDVAQWLKWAENEFSLRPIDSNTFEMNGKDLLLLTKADFRYRSPHSGDVLYELLQHILKQRK
notes: as for B1
B12: H119A-A93D-PNT domain (domain or fragment, human, UniProt P41212 40-125, looked up)
chain: ALRMEEDSIRLPAHLRLQPIYWSRDDVAQWLKWAENEFSLRPIDSNTFEMNGKDLLLLTKEDFRYRSPHSGDVLYELLQAILKQRK
notes: as for B1
B13: Y114A-A93D-PNT domain (domain or fragment, human, UniProt P41212 40-125, looked up)
chain: ALRMEEDSIRLPAHLRLQPIYWSRDDVAQWLKWAENEFSLRPIDSNTFEMNGKDLLLLTKEDFRYRSPHSGDVLAELLQHILKQRK
notes: as for B1

The assay deals with T1, biotinylated V112E-PNT domain (ETV6 …). Briefly: SPR; biotinylated V112E-PNT domain ligand captured on streptavidin Sensor Chip SA, PNT domain analytes flowed; Biacore X100, 25 °C, HBS-EP+ (10 mM HEPES, 150 mM NaCl, 3 mM EDTA, 0.05% v/v Tween-20, pH 7.4); analyte 0.2-60 nM, re-run at 20-6000 nM if KD > 60 nM. Particulars: both partners purified. In a few lines:
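Association and dissociation rate constants and the equilibrium dissociation constant were obtained with the kinetics/affinity wizard of the Biacore software. For these measurements, Avitag-biotinylated ETV6 PNT domain (residues 43-135) at 50 μg/ml in HBS-EP+ was captured on a streptavidin Sensor Chip SA in a Biacore X100 at 25 °C. Analytes were flowed at 0.2, 2, 20, 40 and 60 nM, with weaker binders re-run at 20-6000 nM.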
Background: SPR reads the build-up and loss of mass on a sensor chip optically.
As to B1, binding was put at a Kd of 11 nM; the dissociation rate constant (koff) (in general, a measure of how fast the partners let go of each other) was determined as 0.0025 s⁻¹; the kon (usually a measure of how fast the partners come together) was 230000 M⁻¹ s⁻¹.

As to B2, the affinity, expressed as Kd, was 420 nM; the koff turned out to be 0.0014 s⁻¹; the kon was 3300 M⁻¹ s⁻¹.

For the molecule B3, the Kd (as a rule, the free concentration of one partner at which half of the binding sites on the other are occupied at equilibrium, for simple one-to-one binding) worked out at 450 nM; the off-rate (koff) came out at 0.015 s⁻¹; the kon was found to be 34000 M⁻¹ s⁻¹.

Molecule B4 registered a Kd of 200 nM, a dissociation rate constant (koff) of 0.0016 s⁻¹ and an on-rate constant (kon) of 8100 M⁻¹ s⁻¹.

B5 registered a Kd of 3.3 nM, a koff of 0.00076 s⁻¹ and an association rate constant (kon) of 230000 M⁻¹ s⁻¹.

For the molecule B6, binding was put at a Kd of 5.4 nM, the off-rate (koff) was 0.0014 s⁻¹ and the association rate constant (kon) amounted to 260000 M⁻¹ s⁻¹.

Molecule B7 displayed a Kd of 9.9 nM, a koff of 0.0062 s⁻¹ and a kon of 620000 M⁻¹ s⁻¹.

For the molecule B8, the Kd came out at 32 nM, the koff came to 0.0029 s⁻¹ and the kon turned out to be 91000 M⁻¹ s⁻¹.

In turn, B9 yielded a Kd of 12 nM, a koff of 0.004 s⁻¹ and a kon of 340000 M⁻¹ s⁻¹.

Consider B10, for which binding was put at a Kd of 550 nM, the koff came to 0.011 s⁻¹ and the association rate constant (kon) was 20000 M⁻¹ s⁻¹.

The molecule B11 showed a Kd of 5 nM, a dissociation rate constant (koff) of 0.0015 s⁻¹ and an on-rate constant (kon) of 310000 M⁻¹ s⁻¹.

Regarding B12, the dissociation constant Kd was 13 nM, the koff came out at 0.0034 s⁻¹ and the kon worked out at 270000 M⁻¹ s⁻¹.

In turn, B13 registered a Kd of 130 nM, a koff of 0.0045 s⁻¹ and an association rate constant (kon) of 35000 M⁻¹ s⁻¹.

The record behind these values is PMC7949025, “Biophysical characterization of the ETV6 PNT domain polymerization interfaces” (The Journal of Biological Chemistry, 2021).
